Reference: patent publication US20100204104A1

Legend:
TGF-β3 [1] = target: T1, TGF-β3 (UniProt P10600); test: cell-based or functional assay
T1 sequence (looked up): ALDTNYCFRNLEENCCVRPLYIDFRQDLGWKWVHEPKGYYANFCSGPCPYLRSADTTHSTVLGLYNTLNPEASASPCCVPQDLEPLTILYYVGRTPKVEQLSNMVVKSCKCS

TGF-β1 [2] = target: TGF-β1 (UniProt P01137); test: cell-based or functional assay
TGF-β1 [3] = target: TGF-β1 (UniProt P01137); test: SPR (Biacore), TGF-β1 on chip, CHO-produced sRII-9Gly (lot 2) 1.2-90 nM injected, 1:1 model
TGF-β3 [4] = target: T1, TGF-β3; test: SPR (Biacore), TGF-β3 on chip, HEK 293-produced sRII-9Gly 1.2-90 nM injected, 1:1 model
TGF-β3 [5] = target: T1, TGF-β3; test: SPR (Biacore), TGF-β3 on chip, CHO-produced sRII-9Gly (lot 1) 1.2-90 nM injected, 1:1 model
TGF-β1 [6] = target: TGF-β1 (UniProt P01137); test: SPR (Biacore), TGF-β1 on chip, HEK 293-produced sRII-9Gly 1.2-90 nM injected, 1:1 model
TGF-β3 [7] = target: T1, TGF-β3; test: SPR (Biacore), TGF-β3 on chip, CHO-produced sRII-9Gly (lot 2) 1.2-90 nM injected, 1:1 model
TGF-β1 [8] = target: TGF-β1 (UniProt P01137); test: SPR (Biacore), TGF-β1 on chip, CHO-produced sRII-9Gly (lot 1) 1.2-90 nM injected, 1:1 model

UniProt P01137, sequence (P01137 279-390 limits assumed): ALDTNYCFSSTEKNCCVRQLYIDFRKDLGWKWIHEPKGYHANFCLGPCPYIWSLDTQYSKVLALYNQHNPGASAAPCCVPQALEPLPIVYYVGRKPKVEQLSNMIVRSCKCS

B1: sRII-9Gly fusion protein (receptor)
chain: IPPHVQKSVNNDMIVTDNNGAVKFPQLCKFCDVRFSTCDNQKSCMSNCSITSICEKPQEVCVAVWRKNDENITLETVCHDPKLPYHDFILEDAASPKCIMKEKKKPGETFFMCSCSSDECNDNIIFSEEYNTSNPDLHMGGGGGGGGGIDIPPHVQKSVNNDMIVTDNNGAVKFPQLCKFCDVRFSTCDNQKSCMSNCSITSICEKPQEVCVAVWRKNDENITLETVCHDPKLPYHDFILEDAASPKCIMKEKKKPGETFFMCSCSSDECNDNIIFSEEYNTSNPDL
B1 gave an IC50 (nM), A549/IL-11 cell bioassay, CHO-produced sRII-9Gly Lot 9 (TGF-β3 [1]) of 0.035 nM, an IC50 (nM), A549/IL-11 cell bioassay, CHO-produced sRII-9Gly Lot 10 (TGF-β3 [1]) of 0.29 nM and an IC50 (nM), A549/IL-11 cell bioassay, CHO-produced sRII-9Gly Lot 11 (TGF-β3 [1]) of 0.008 nM. The IC50 (nM), A549/IL-11 cell bioassay, CHO-produced sRII-9Gly Lot 12 (TGF-β3 [1]) was 0.07 nM, the IC50 (nM), A549/IL-11 cell bioassay, CHO-produced sRII-9Gly Lot 13 (TGF-β3 [1]) was 0.018 nM and the IC50 (nM), A549/IL-11 cell bioassay, CHO-produced sRII-9Gly Lot 9 (TGF-β1 [2]) was 0.02 nM. It also gave an IC50 (nM), A549/IL-11 cell bioassay, CHO-produced sRII-9Gly Lot 10 (TGF-β1 [2]) of 0.018 nM, an IC50 (nM), A549/IL-11 cell bioassay, CHO-produced sRII-9Gly Lot 11 (TGF-β1 [2]) of 0.014 nM and an IC50 (nM), A549/IL-11 cell bioassay, CHO-produced sRII-9Gly Lot 12 (TGF-β1 [2]) of 0.015 nM. It also gave an IC50 (nM), A549/IL-11 cell bioassay, CHO-produced sRII-9Gly Lot 13 (TGF-β1 [2]) of 0.016 nM, an IC50 (nM), A549/IL-11 cell bioassay, sRII-9Gly Lot 4 (TGF-β1 [2]) of 0.039 nM and an IC50 (nM), A549/IL-11 cell bioassay, sRII-9Gly Lot 5 (TGF-β1 [2]) of 0.053 nM. For the same binder, the IC50 (nM), A549/IL-11 cell bioassay, sRII-9Gly Lot 6 (pH 7.0) (TGF-β1 [2]) was 0.054 nM, the IC50 (nM), A549/IL-11 cell bioassay, sRII-9Gly Lot 7 (pH 8.5) (TGF-β1 [2]) was 0.062 nM and the IC50 (nM), A549/IL-11 cell bioassay, sRII-9Gly Lot 8 (pH 9.0) (TGF-β1 [2]) was 0.047 nM. For the same binder, the IC50 (ng/ml), A549/IL-11 cell bioassay, sRII-9Gly Lot 4 (TGF-β1 [2]) was 1.34 ng/mL, the IC50 (ng/ml), A549/IL-11 cell bioassay, sRII-9Gly Lot 5 (TGF-β1 [2]) was 1.8 ng/mL and the IC50 (ng/ml), A549/IL-11 cell bioassay, sRII-9Gly Lot 6 (pH 7.0) (TGF-β1 [2]) was 1.82 ng/ml. It also gave an IC50 (ng/ml), A549/IL-11 cell bioassay, sRII-9Gly Lot 7 (pH 8.5) (TGF-β1 [2]) of 2.12 ng/ml, an IC50 (ng/ml), A549/IL-11 cell bioassay, sRII-9Gly Lot 8 (pH 9.0) (TGF-β1 [2]) of 1.59 ng/ml and a Kd (TGF-β1 [3]) of 9.8 nM. For the same binder, the koff (TGF-β1 [3]) was 0.0011 s⁻¹, the Kd (TGF-β3 [4]) was 2.1 nM and the koff (TGF-β3 [4]) was 0.00034 s⁻¹. The Kd (TGF-β3 [5]) was 5 nM, the koff (TGF-β3 [5]) was 0.00131 s⁻¹ and the Kd (TGF-β1 [6]) was 8.2 nM. For the same binder, the koff (TGF-β1 [6]) was 0.0011 s⁻¹, the Kd (TGF-β3 [7]) was 6.8 nM and the koff (TGF-β3 [7]) was 0.00085 s⁻¹. The Kd (TGF-β1 [8]) was 6.3 nM and the koff (TGF-β1 [8]) was 0.00117 s⁻¹.
